How the values were obtained:
[1] = system: Type I-Fv Cascade (Cas5fv, His-Cas7fv, Cas6f, crRNA spacer4) (Shewanella putrefaciens CN-32); test: BLI; conditions: BLI buffer: SEC buffer (composition in Supplementary Table II, not in material) + 0.1 uM BSA + 0.01% Triton X-100, 100 nM biotinylated oligonucleotide loaded …
[2] = system: Type I-F Cascade (Cas8f, Cas5f, His-Cas7f, Cas6f, crRNA) (Shewanella baltica OS195); test: BLI

CGCCGGTTATAGGTTTGCGCGTCTTGCTGGGCGATAGGACGTGGGATATCTTTTTGATATCCCACGTCCTATCGCCCAGCAAGACGCGCAAACCTATAACCGGCG (double strand) [Complementary (GG PAM)]
Kd [1]: 46.5 nM
Kd ([2]; BLI buffer: SEC buffer (composition in Supplementary Table II, not in material) + 0.1 uM BSA + 0.01% Triton X-100, 100 nM biotinylated oligonucleotide loaded …): 99.6 nM
binding signal ([2]; BLI buffer: SEC buffer (composition in Supplementary Table II, not in material) + 0.1 uM BSA + 0.01% Triton X-100, 100 nM biotinylated oligonucleotide loaded …, scale: fold reduction of equilibrium binding level): 5
